Consider two proteins from publication PMC4372403, “Glycosylation of Phenolic Compounds by the Site-Mutated β-Galactosidase from Lactobacillus bulgaricus L3” (PLoS ONE, 2015).

A word on the Km: it is the substrate concentration at which the rate is half of its maximum. Broadly, the Vmax is the rate approached at saturating substrate. By kcat is commonly meant the maximal rate divided by the concentration of active sites. One may read the kcat/Km as the second-order rate constant that governs catalysis at low substrate concentration.

Substrate in this series: O=[N+]([O-])c1ccccc1O[C@@H]1O[C@H](CO)[C@H](O)[C@H](O)[C@H]1O
The series can be described thus: purified protein. The class given is biochemical, Lactobacillus delbrueckii. To be noted: 37°C, 10 min, oNPGal 0.5 to 50 mM, hydrolysis.

B1: BgaL3 (β-galactosidase from Lactobacillus bulgaricus L3) (Lactobacillus delbrueckii subsp. bulgaricus) (protein)
chain: MSNKLVKEKRVDQADLAWLTDPEVYEVNTIPPHSDHESFQSQEELEEGKSSLVQSLDGDWLIDYAENGQGPVNFYAEDFDDSNFKSVKVPGNLELQGFGQPQYVNVQYPWDGSEEIFPPQIPSKNPLASYVRYFDLDEAFWDKEVSLKFDGAATAIYVWLNGHFVGYGEDSFTPSEFMVTKFLKKENNRLAVALYKYSSASWLEDQDFWRMSGLFRSVTLQAKPRLHLEDLKLTASLTDNYQKGKLEVEANIAYRLPNASFKLEVRDSEGDLVAEKLGPIRSEQLEFTLADLPVAAWSAEKPNLYQVRLYLYQAGSLLEVSRQEVGFRNFELKDGIMYLNGQRIVFKGANRHEFDSKLGRAITEEDMIWDIKTMKRSNINAVRCSHYPNQSLFYRLCDKYGLYVIDEANLESHGTWEKVGGHEDPSFNVPGDDQHWLGASLSRVKNMMARDKNHASILIWSLGNESYAGTVFAQMADYVRKADPTRVQHYEGVTHNRKFDDATQIESRMYVPAKVIEEYLTNKPAKPFISVEYAHAMGNSVGDLAAYTALEKYPHYQGGFIWDWIDQGLEKDGHLLYGGDFDDRPTDYEFCGNGLVFADRTESPKLANVKALYANLKLEVKDGQLFLKNDNLFTNSSSYYFLTSLLVDGKLTYQSRPLTFGLEPGESGTFALPWPEVADEKGEVVYRVTAHLKEDLPWADEGFTVAEAEEVAQKLPEFKPEGRPDLVDSDYNLGLKGNNFQILFSKVKGWPVSLKYAGREYLKRLPEFTFWRALTDNDRGAGYGYDLARWENAGKYARLKDISCEVKEDSVLVKTAFTLPVALKGDLTVTYEVDGRGKIAVTADFPGAEEAGLLPAFGLNLALPKELTDYRYYGLGPNESYPDRLEGNYLGIYQGAVKKNFSPYLRPQETGNRSKVRWYQLFDEKGGLEFTANGADLNLSALPYSAAQIEAADHAFELTNNYTWVRALSAQMGVGGDDSWGQKVHPEFCLDAQKARQLRLVIQPLLLK
B1: the Michaelis constant (Km) was found to be 1.38 mM, the Vmax came to 6530 µmol/min/mg, the catalytic constant (kcat) is 12500 s⁻¹ and the kcat/Km was found to be 9.06e+06 M⁻¹ s⁻¹.

B2: BgaL3 (β-galactosidase from Lactobacillus bulgaricus L3) (Lactobacillus delbrueckii subsp. bulgaricus; W980F) (protein)
chain: MSNKLVKEKRVDQADLAWLTDPEVYEVNTIPPHSDHESFQSQEELEEGKSSLVQSLDGDWLIDYAENGQGPVNFYAEDFDDSNFKSVKVPGNLELQGFGQPQYVNVQYPWDGSEEIFPPQIPSKNPLASYVRYFDLDEAFWDKEVSLKFDGAATAIYVWLNGHFVGYGEDSFTPSEFMVTKFLKKENNRLAVALYKYSSASWLEDQDFWRMSGLFRSVTLQAKPRLHLEDLKLTASLTDNYQKGKLEVEANIAYRLPNASFKLEVRDSEGDLVAEKLGPIRSEQLEFTLADLPVAAWSAEKPNLYQVRLYLYQAGSLLEVSRQEVGFRNFELKDGIMYLNGQRIVFKGANRHEFDSKLGRAITEEDMIWDIKTMKRSNINAVRCSHYPNQSLFYRLCDKYGLYVIDEANLESHGTWEKVGGHEDPSFNVPGDDQHWLGASLSRVKNMMARDKNHASILIWSLGNESYAGTVFAQMADYVRKADPTRVQHYEGVTHNRKFDDATQIESRMYVPAKVIEEYLTNKPAKPFISVEYAHAMGNSVGDLAAYTALEKYPHYQGGFIWDWIDQGLEKDGHLLYGGDFDDRPTDYEFCGNGLVFADRTESPKLANVKALYANLKLEVKDGQLFLKNDNLFTNSSSYYFLTSLLVDGKLTYQSRPLTFGLEPGESGTFALPWPEVADEKGEVVYRVTAHLKEDLPWADEGFTVAEAEEVAQKLPEFKPEGRPDLVDSDYNLGLKGNNFQILFSKVKGWPVSLKYAGREYLKRLPEFTFWRALTDNDRGAGYGYDLARWENAGKYARLKDISCEVKEDSVLVKTAFTLPVALKGDLTVTYEVDGRGKIAVTADFPGAEEAGLLPAFGLNLALPKELTDYRYYGLGPNESYPDRLEGNYLGIYQGAVKKNFSPYLRPQETGNRSKVRWYQLFDEKGGLEFTANGADLNLSALPYSAAQIEAADHAFELTNNYTWVRALSAQMGVGGDDSFGQKVHPEFCLDAQKARQLRLVIQPLLLK
Consider B2, for which the Km is listed as 6.40 mM, the Vmax was 640 µmol/min/mg, the kcat stood at 1240 s⁻¹ and the kcat/Km amounted to 194000 M⁻¹ s⁻¹.
